Reference: publication PMC5923308
Read-outs that look alike come from different tables or passages of the source.

Assays:
[1] = target: crotoxin basic subunit CB (phospholipase A2) from Crotalus durissus terrificus (Crotalus durissus terrificus) (UniProt P0CG56); test: ELISA
[2] = target: crotoxin (CTX) from Crotalus durissus terrificus venom, heterodimer of CA and CB (Crotalus durissus terrificus)
[3] = target: crotoxin basic subunit CB (phospholipase A2) from Crotalus durissus terrificus (Crotalus durissus terrificus) (UniProt P0CG56)
[4] = target: crotoxin (CTX) from Crotalus durissus terrificus venom, heterodimer of CA and CB (Crotalus durissus terrificus); remark: listed apart in the source
[5] = target: crotoxin basic subunit CB (phospholipase A2) from Crotalus durissus terrificus (Crotalus durissus terrificus) (UniProt P0CG56); remark: listed apart in the source
[6] = target: crotoxin (CTX) from Crotalus durissus terrificus venom, heterodimer of CA and CB (Crotalus durissus terrificus); test: SPR; Biacore T200; CTX amine-coupled on a CM5 chip; VHH 2.5 to 0.002 µM in HBS-p (10 mM HEPES, 150 mM NaCl, 3.4 mM EDTA, 0.005% Tween 20, pH 7.4); 30 µL/min, 25 °C; 1:1 Langmuir model
[7] = target: crotoxin (CTX) from Crotalus durissus terrificus venom, heterodimer of CA and CB (Crotalus durissus terrificus); test: SPR; Biacore T200; CTX immobilised on a CM5 chip by EDC/NHS coupling (10 mM acetate, pH 5.5); VHHs injected at 2.5 to 0.002 uM in HBS-p (10 mM HEPES, 150 mM NaCl, 3.4 mM EDTA, 0.005% Tween 20, pH 7.4); 30 uL/min, 25 °C; 1:1 Langmuir model
[8] = target: crotoxin basic subunit CB (phospholipase A2) from Crotalus durissus terrificus (Crotalus durissus terrificus) (UniProt P0CG56); test: ELISA; remark: listed apart in the source

VHH KF498604 (clone Cb-16)
% of the unheated sample's ELISA signal after 1 h at 85 °C [1]: 85% | reduction of plasma creatine kinase in Swiss mice 3 h after i.m. injection of CTX (1.5 µg) pre-incubated with VHH at 1:10, 1:20 and 1:40 (w/w) (46%, 63%, 78%), against CTX alone [2]: 78.8% | reduction of LDH release from murine C2C12 myotubes after 3 h with CB (20 µg) pre-incubated with VHH at 1:2.5 (w/w), against CB alone [3]: 59.3% | inhibition of phospholipase activity on acyl-NBD-PC fluorescent phospholipids, toxin pre-incubated with VHH 30 min at 37 °C, toxin/VHH 1:5 to 1:40 (w/w) [4]: 80% | inhibition of phospholipase activity on acyl-NBD-PC fluorescent phospholipids, toxin pre-incubated with VHH 30 min at 37 °C, toxin/VHH 1:5 to 1:40 (w/w) [5]: 80% | Kd [6]: 81.3 nM | koff [7]: 0.00554 s⁻¹ | kon [7]: 68100 M⁻¹ s⁻¹ | % of the unheated sample's ELISA signal after 1 h at 85 °C [8]: > 75% | % of the unheated sample's ELISA signal after 1 h at 95 °C [8]: 100%
